Measured values from the supplement of paper PMC9876800.

Test system: peptide library, one residue held at a place counted from the S/T acceptor
Assay: relative phosphorylation of the sub-library (ratio to the mean residue at this position); human; higher = residue favoured
Summary of the method: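 Relative sub-library phosphorylation, a ratio to the mean residue at that position, was obtained by phosphorimaging and densitometry of spots on streptavidin membranes. Before capture, purified recombinant kinases were incubated for 90 min under kinase-specific conditions with 50 μM biotinylated degenerate peptide sub-libraries and 50 μM ATP spiked with γ-32P-ATP. Each sub-library fixed one residue at one position around a central Ser/Thr.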

Chain of PAK2, construct: aa3-end (Q13177 3-524, looked up): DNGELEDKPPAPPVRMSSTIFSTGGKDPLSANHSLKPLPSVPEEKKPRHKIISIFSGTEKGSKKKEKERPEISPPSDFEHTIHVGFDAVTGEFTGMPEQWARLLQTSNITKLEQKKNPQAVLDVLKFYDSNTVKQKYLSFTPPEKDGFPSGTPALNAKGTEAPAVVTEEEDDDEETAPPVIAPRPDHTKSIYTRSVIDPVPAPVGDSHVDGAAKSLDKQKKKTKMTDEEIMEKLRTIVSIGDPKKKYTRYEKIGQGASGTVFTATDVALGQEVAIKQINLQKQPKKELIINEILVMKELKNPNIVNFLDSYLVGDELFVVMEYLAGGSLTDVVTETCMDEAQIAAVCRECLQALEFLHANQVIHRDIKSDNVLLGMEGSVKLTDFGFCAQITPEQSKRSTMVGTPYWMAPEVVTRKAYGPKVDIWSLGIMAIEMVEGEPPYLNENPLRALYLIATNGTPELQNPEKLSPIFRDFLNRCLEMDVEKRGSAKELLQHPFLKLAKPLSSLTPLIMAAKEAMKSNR
Chain of PAK3, construct: Full length (O75914 whole entry, looked up): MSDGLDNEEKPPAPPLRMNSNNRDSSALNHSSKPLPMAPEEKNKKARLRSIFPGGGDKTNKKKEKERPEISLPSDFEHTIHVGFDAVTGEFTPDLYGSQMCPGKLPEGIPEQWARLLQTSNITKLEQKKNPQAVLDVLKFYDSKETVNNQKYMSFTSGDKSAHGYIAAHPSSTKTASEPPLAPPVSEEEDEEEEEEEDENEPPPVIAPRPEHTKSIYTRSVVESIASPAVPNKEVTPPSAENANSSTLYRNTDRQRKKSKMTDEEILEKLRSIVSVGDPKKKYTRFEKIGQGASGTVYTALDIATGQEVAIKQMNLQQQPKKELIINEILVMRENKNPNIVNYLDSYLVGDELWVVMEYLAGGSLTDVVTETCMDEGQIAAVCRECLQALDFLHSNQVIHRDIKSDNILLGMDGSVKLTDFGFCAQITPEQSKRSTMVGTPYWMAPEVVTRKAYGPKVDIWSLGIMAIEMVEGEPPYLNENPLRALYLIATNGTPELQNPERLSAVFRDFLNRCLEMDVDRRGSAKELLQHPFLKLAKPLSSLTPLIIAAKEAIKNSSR
Chain of PAK1, construct: aa150-end (Q13153 150-545, looked up): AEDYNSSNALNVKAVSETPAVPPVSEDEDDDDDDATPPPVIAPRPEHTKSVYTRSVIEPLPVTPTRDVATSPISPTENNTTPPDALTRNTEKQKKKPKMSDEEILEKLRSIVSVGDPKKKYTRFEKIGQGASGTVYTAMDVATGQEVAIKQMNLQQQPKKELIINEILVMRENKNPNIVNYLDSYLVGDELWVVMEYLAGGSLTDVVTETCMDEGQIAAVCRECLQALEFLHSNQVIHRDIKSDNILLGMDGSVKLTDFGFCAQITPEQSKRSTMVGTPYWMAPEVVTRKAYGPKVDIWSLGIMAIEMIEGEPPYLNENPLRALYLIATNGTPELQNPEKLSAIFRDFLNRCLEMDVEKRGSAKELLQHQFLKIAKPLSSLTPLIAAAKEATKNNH

PAK1, construct: aa150-end (from UniProt Q13153)
relative phosphorylation
Conditions	at +1	at +2	at +3	at +4	at -1	at -2	at -3	at -4	at -5
A fixed	0.877	1.16	0.875	1.05	0.946	0.789	0.87	1.27	1.39
D fixed	0.338	0.472	0.959	1.32	0.592	0.203	0.558	0.825	0.785
E fixed	0.428	0.398	1.09	1.29	0.559	0.206	0.495	0.85	0.676
F fixed	0.993	1.14	1.33	0.741	0.696	0.346	0.464	0.633	0.68
G fixed	0.895	0.726	1.22	1.24	0.782	0.526	0.869	1.4	1.44
H fixed	1.09	1.6	1.17	0.97	1.35	1.37	1.4	1.14	1.16
I fixed	1.03	1.1	0.826	0.773	0.564	0.551	0.41	0.529	0.55
K fixed	1.18	0.604	0.775	1.08	1.72	1.32	2.34	1.71	1.88
L fixed	0.969	1.09	1.04	0.77	0.821	0.374	0.415	0.547	0.53
M fixed	1.58	1.02	0.913	0.783	0.927	0.36	0.485	0.744	0.587
N fixed	0.895	0.885	0.971	1.11	1.19	0.518	0.965	1.01	1.03
P fixed	0.228	0.716	1.03	1.4	0.646	1.08	0.823	1.24	1.16
Q fixed	1.3	0.766	0.897	1.2	1.11	0.673	0.952	1.08	0.964
R fixed	1.46	0.793	0.841	0.95	2.22	6.99	4.23	1.99	2.04
V fixed	0.971	0.925	0.797	0.851	0.766	0.724	0.431	0.624	0.707
W fixed	1.57	0.978	1.03	0.806	0.886	0.369	0.703	0.756	0.668
Y fixed	1.19	2.62	1.22	0.652	1.22	0.6	0.594	0.672	0.762
pThr fixed	0.668	0.676	0.877	1.4	0.439	0.503	0.568	0.857	0.666
pTyr fixed	0.886	4.31	1.28	1.09	0.672	0.392	0.853	0.808	0.675

PAK2, construct: aa3-end (from UniProt Q13177)
relative phosphorylation
Conditions	at +1	at +2	at +3	at +4	at -1	at -2	at -3	at -4	at -5
A fixed	0.794	0.823	0.781	0.846	0.808	0.606	0.786	0.97	1.05
D fixed	0.359	0.391	0.855	0.98	0.562	0.197	0.506	0.844	0.724
E fixed	0.432	0.37	0.921	0.988	0.522	0.222	0.469	0.891	0.602
F fixed	1.18	1.76	1.77	0.95	0.956	0.464	0.699	0.729	0.803
G fixed	0.916	0.643	0.868	1.01	0.668	0.479	0.891	1.06	1.2
H fixed	0.997	1.4	1.14	1.07	1.29	1.44	1.2	1.09	1.16
I fixed	1.22	1.22	1.03	0.87	0.796	0.606	0.583	0.673	0.741
K fixed	1.01	0.452	0.623	0.938	1.41	1.12	1.78	1.58	1.81
L fixed	1.16	1.37	1.13	1.02	1.18	0.391	0.561	0.729	0.707
M fixed	1.64	1.14	1.07	1.07	1.17	0.416	0.599	0.885	0.672
N fixed	0.738	0.734	0.847	1.22	1.07	0.503	0.977	1.02	1.04
P fixed	0.222	0.625	0.903	1.38	0.723	0.935	0.894	0.944	0.926
Q fixed	1.06	0.797	0.754	1.08	1.08	0.572	0.827	0.901	0.889
R fixed	1.19	0.658	0.657	0.821	1.72	7.1	3.91	2.26	2.31
V fixed	1.2	1.01	0.906	0.787	0.763	0.642	0.557	0.688	0.694
W fixed	1.65	1.18	1.33	1.15	1.03	0.485	0.954	0.887	0.801
Y fixed	1.23	2.42	1.42	0.824	1.25	0.821	0.801	0.84	0.858
pThr fixed	0.66	0.551	0.597	1.12	0.392	0.495	0.74	1.04	0.931
pTyr fixed	0.822	2.1	1.11	0.856	0.652	0.379	0.8	0.71	0.876

PAK3, construct: Full length (from UniProt O75914)
relative phosphorylation
Conditions	at +1	at +2	at +3	at +4	at -1	at -2	at -3	at -4	at -5
A fixed	0.949	1.12	1.05	1.07	0.974	0.862	0.985	1.32	1.33
D fixed	0.291	0.36	0.768	0.986	0.485	0.178	0.437	0.64	0.604
E fixed	0.356	0.297	0.701	0.89	0.463	0.19	0.415	0.665	0.547
F fixed	1.14	1.37	1.37	0.847	0.752	0.471	0.59	0.732	0.876
G fixed	0.706	0.615	0.97	1.13	0.716	0.449	0.825	1.32	1.24
H fixed	1.09	1.57	1.2	1.14	1.31	1.61	1.32	1.29	1.1
I fixed	1.27	1.19	0.983	0.777	0.701	0.624	0.494	0.629	0.643
K fixed	1.07	0.645	0.764	1.03	1.61	1.3	2.22	1.28	1.81
L fixed	1.1	1.17	1.12	0.905	1.11	0.439	0.558	0.689	0.636
M fixed	1.54	1.04	1.02	0.933	1.12	0.48	0.693	0.873	0.681
N fixed	0.749	0.728	0.847	1.03	1.04	0.584	0.825	0.966	0.863
P fixed	0.21	0.655	0.976	1.45	0.611	0.817	0.823	1.14	1.09
Q fixed	1.09	0.729	0.886	1.17	1	0.715	0.878	1.05	0.93
R fixed	1.35	0.853	0.819	0.933	2.06	6.37	3.73	1.86	2.24
V fixed	1.12	1.11	0.955	0.908	0.914	0.748	0.512	0.756	0.757
W fixed	1.66	1.11	1.26	1.04	0.976	0.423	0.907	0.901	0.812
Y fixed	1.3	2.44	1.3	0.753	1.16	0.747	0.785	0.89	0.852
pThr fixed	0.479	0.471	0.632	0.99	0.367	0.411	0.546	0.754	0.574
pTyr fixed	0.635	2.43	0.9	0.76	0.605	0.323	0.743	0.654	0.619

PKN2, construct: aa501-984 (from UniProt Q16513)
relative phosphorylation
Conditions	at +1	at +2	at +3	at +4	at -1	at -2	at -3	at -4	at -5
A fixed	0.532	0.768	0.837	0.925	0.905	1.1	0.867	1.11	0.963
D fixed	0.318	0.322	0.543	0.614	0.962	0.35	0.321	0.59	0.503
E fixed	0.293	0.32	0.545	0.609	0.719	0.357	0.347	0.669	0.522
F fixed	2.82	0.467	0.753	0.535	0.602	0.671	0.464	0.749	0.806
G fixed	0.43	0.554	0.938	1.17	1.32	0.949	0.823	1.19	1.04
H fixed	0.805	1.63	1.22	1.25	1.16	1.43	1.49	1.16	0.946
I fixed	1.34	0.836	0.888	0.877	0.514	0.569	0.514	0.861	1.45
K fixed	1.33	2.49	1.85	1.94	1.66	2.17	2.37	1.82	1.43
L fixed	1.25	0.927	0.946	0.785	0.833	0.571	0.61	0.804	1.34
M fixed	1.84	0.788	0.839	0.804	0.825	0.852	0.643	0.928	0.723
N fixed	0.75	1.02	0.861	0.994	1.37	1.13	0.736	0.938	0.78
P fixed	0.252	0.471	0.557	1.2	1.06	0.538	0.681	0.831	0.99
Q fixed	0.82	0.758	0.998	0.998	1.04	1.11	0.898	1.09	0.89
R fixed	1.44	3.42	2.22	1.7	1.71	2.83	4.31	1.59	1.84
V fixed	0.927	0.8	0.875	0.787	0.74	0.752	0.512	0.985	1.23
W fixed	0.855	0.536	0.979	0.987	0.775	0.801	0.661	0.871	0.723
Y fixed	0.997	0.885	1.15	0.825	0.811	0.82	0.742	0.809	0.824
pThr fixed	1.05	1.15	0.818	0.683	0.799	0.836	0.743	1.11	0.683
pTyr fixed	0.572	0.884	0.864	0.666	0.856	0.711	0.977	0.741	0.863
